The values below come from patent publication US20130129752A1.

Holding throughout (assay): cell-based or functional assay
In assay [1] the target is human LFA-1 on cells in the unstimulated, low-affinity conformation (human) (UniProt P20701).
Assay [2] concerns the target human HA LFA-1 stably expressed on K562 cells (K562-HA LFA-1) (human) (UniProt P20701).
Assay [3] concerns the target human WT LFA-1 (alpha L beta 2) on cells, activation state not specified at the place cited (human) (UniProt P20701).

human WT LFA-1 (alpha L beta 2) on cells, activation state not specified at the place cited (human), sequence (P20701 26-1170, chain 1 of 2): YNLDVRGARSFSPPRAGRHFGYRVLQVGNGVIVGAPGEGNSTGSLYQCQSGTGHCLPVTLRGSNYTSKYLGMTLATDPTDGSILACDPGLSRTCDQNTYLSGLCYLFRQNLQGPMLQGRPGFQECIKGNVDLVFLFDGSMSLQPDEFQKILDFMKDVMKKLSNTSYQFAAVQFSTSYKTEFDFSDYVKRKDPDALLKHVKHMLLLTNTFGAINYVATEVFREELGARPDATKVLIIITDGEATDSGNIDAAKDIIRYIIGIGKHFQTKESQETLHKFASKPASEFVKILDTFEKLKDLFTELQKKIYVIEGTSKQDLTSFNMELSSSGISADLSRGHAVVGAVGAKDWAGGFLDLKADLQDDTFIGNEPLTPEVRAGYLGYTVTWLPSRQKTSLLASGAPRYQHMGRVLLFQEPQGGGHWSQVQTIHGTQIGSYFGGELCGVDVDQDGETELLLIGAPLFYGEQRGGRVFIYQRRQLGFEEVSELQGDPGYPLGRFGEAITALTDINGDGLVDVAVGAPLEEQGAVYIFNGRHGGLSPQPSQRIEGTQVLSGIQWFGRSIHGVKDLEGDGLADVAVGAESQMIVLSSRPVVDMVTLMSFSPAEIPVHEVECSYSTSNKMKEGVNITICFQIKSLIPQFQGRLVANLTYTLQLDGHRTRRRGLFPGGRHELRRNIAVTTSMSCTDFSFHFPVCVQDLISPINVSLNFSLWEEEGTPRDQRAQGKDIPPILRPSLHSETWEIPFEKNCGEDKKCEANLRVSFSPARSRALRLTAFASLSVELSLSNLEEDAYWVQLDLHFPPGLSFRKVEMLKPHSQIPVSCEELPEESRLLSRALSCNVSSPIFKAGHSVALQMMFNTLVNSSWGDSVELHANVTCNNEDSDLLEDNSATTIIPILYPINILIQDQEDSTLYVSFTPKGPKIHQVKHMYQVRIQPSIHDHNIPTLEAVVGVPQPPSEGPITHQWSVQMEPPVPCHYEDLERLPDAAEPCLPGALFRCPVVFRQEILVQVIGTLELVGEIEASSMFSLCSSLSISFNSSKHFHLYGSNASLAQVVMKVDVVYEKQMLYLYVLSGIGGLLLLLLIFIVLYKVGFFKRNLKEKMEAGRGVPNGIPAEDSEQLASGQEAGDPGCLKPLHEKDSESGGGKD
human WT LFA-1 (alpha L beta 2) on cells, activation state not specified at the place cited (human), sequence (P05107 23-769, chain 2 of 2, further chain): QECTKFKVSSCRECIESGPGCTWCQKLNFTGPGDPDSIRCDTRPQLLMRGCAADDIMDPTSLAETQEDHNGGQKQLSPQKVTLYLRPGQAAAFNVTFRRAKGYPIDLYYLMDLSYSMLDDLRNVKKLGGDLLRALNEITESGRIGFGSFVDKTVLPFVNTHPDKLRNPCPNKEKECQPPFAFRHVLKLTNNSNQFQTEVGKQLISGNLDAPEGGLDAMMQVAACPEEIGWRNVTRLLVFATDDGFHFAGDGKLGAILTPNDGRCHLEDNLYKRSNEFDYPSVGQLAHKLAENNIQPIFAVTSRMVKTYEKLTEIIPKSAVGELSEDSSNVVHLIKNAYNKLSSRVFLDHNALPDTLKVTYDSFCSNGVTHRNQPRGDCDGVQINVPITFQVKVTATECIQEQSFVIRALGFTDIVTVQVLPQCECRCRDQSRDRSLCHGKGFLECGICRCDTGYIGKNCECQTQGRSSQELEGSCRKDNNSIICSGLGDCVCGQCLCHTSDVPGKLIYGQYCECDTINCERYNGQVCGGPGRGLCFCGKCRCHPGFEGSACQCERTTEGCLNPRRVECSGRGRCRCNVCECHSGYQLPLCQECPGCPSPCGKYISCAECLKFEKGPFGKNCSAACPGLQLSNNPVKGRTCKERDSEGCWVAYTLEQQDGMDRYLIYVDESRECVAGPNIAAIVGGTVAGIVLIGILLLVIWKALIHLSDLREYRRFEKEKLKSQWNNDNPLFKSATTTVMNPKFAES
human LFA-1 on cells in the unstimulated, low-affinity conformation (human), sequence (P20701 26-1170, chain 1 of 2): as the sequence (P20701 26-1170, chain 1 of 2) above
human LFA-1 on cells in the unstimulated, low-affinity conformation (human), sequence (P05107 23-769, chain 2 of 2, further chain): as the sequence (P05107 23-769, chain 2 of 2, further chain) above

On to “AL-57-protamine fusion protein (scFv AL-57 fused to truncated human protamine, residues 8-29, His6 tag) (from UniProt P04553 8-29)”, for which the Cy3-siRNA delivery to PBMC subsets (flow cytometry), Cy3+ T and B lymphocytes in assay [1] lay within 1 to 2%. Moreover, the Cy3+ K562 cells/Total K562 cells, % (in vivo Cy3-siRNA delivery, SCID mouse lung, flow cytometry) in assay [2] came out at 88.1%; in assay [3], 23.3%.
For the substance “TS1/22-protamine fusion protein (scFv TS1/22 fused to human protamine residues 8-29, His6 tag) (from UniProt P04553 8-29)”, the Cy3+ K562 cells/Total K562 cells, % (in vivo Cy3-siRNA delivery, SCID mouse lung, flow cytometry) in assay [2] worked out at 87.4%; in assay [3], 88.5%.
On the same counts, the results for “ML39-protamine fusion protein (control scFv-PF fusion protein that recognizes human ErbB2)” are 4.2% and 4.7%.
